# Reference: publication PMC4598023 (PLoS ONE, 2015)
# Bridges are numbered along the chain shown (N, C = ends). Where no end group is shown, it is not given here.
# Tests used:
# [1] = target: T1, human receptor-activity modifying protein 3 Extracellular Topological Domain (RAMP3-ETD), fluorescein-labelled (Homo sapiens, UniProt O60896); assay: Isothermal binding assay, fluorescence anisotropy, RAMP-3; conditions: for Anisotropy: 50 nM labelled RAMP-3, PBS pH 7.4, 25°C, mean of five measurements
# T1 construct: RAMP3-ETD; residues 28–117; UNIPROT identifier O60896; His tag (N); thrombin cleavage site (N); made in house; host or cells: E. coli BL21DE3pLys
# T1 sequence (O60896 28-117): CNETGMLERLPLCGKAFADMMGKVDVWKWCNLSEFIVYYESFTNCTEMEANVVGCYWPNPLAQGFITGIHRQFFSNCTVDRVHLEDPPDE
# Source text: The human receptor-activity modifying protein 3 Extracellular Topological Domain (RAMP3-ETD; residues 28–117; UNIPROT identifier O60896; Sequence in S1 File) was obtained by heterologous production in E. coli and further purified from inclusion bodies. The synthetic DNA sequence encoding the RAMP3-ETD of RAMP3 was cloned into bacterial protein expression vector pET28b (Novagen/EMD Millipore) from the synthetic gene using NdeI and EcoRI. The sequence and identity of the gene in the pET28b-RAMP3 construct was confirmed with DNA sequencing. The gene synthesis, cloning and sequencing services were provided by GenScript Corporation (Piscataway, NJ, USA).
# RAMP3 was produced and purified as described previously for the homologous protein RAMP2 [56]. The RAMP3-ETD was produced as a fusion protein containing an N-terminal histidine tag and a thrombin protease cleavage site, by heterologous expression in E. coli BL21DE3pLys (1 mM IPTG, 37°C, 3 h). […] The purified RAMP3-ETD was refolded by rapid dilution into cold buffer 50 mM sodium phosphate buffer (pH 8.3) containing 1 M arginine hydrochloride, 5 mM reduced glutathione, 1 mM oxidized glutathione, and 1 mM EDTA and left stand for 24 h at 4°C. After refolding, RAMP3-ETD was dialyzed, concentrated in AMICON (Millipore, Brazil), and stored in 20 mM sodium phosphate buffer and 500 mM NaCl, pH 7.0, in liquid nitrogen until use. Purity was over 95% as judged by SDS-PAGE, routine size-exclusion chomatography and MALDI-ToF-MS. The purified RAMP3 was quantified by absorbance at 280 nm, using 21,345 M^-1cm^−1 as extinction coefficient.
# (§1) The proteins (CTR, RAMP and murine amylin) were labeled with fluorescein isothiocyanate (FITC; Sigma-Aldrich; 0.2 mM final concentration, from stock in DMSO at 5 mM freshly prepared) in 20 mM Na2HPO4, 300 mM NaCl, pH 7.0, for 60 min at 25°C protected from light. The reaction was quenched by adding an excess of Tris-HCl. The free fluorescein was removed by chromatography with a Sephadex G25 desalting column (GE Healthcare, Brazil). The labeling efficiency, final yield and protein quantification were calculated as described elsewhere. The labeling efficiency was below 1 mol FITC:1 mol protein for all labeling procedures. Labeled proteins were stored until use protected from light at -20°C for no longer than 3 months.
# (§2) The fluorescence measurements were conducted in a Spectramax M5 (Molecular Devices) microplate reader, with excitation and emission set at 480 nm and 520 nm respectively, with cut-off filter 515 nm. The results represent the mean and the standard error of the mean (SEM) of five measurements. Binding data analysis was performed with SigmaPlot 12.5 (Systat Software, Inc., CA, USA).
# (§3) Fig 4 Amylin self-assembly and interaction with co-receptors. […] Assays were conducted in PBS, pH 7.4, 25°C, in the presence of 50 nM FITC-labelled proteins (amylin, CTR–1 or RAMP–3). Ex 480 nm, Em 520 nm, filter 515 nm. The raw data can be found in S2 File.
# [2] = Amylin aggregation by ThT fluorescence, up to 7 days in PBS pH 7.4; assay type: physicochemical; conditions: PBS pH 7.4, 25°C, followed up to 7 days
# Experimental: In this case, at the indicated time 160 μL sample were mixed with 40 μL ThT 100 μM. In both cases the thioflavin T fluorescence was measured by setting excitation at 450 nm and emission at 482 nm. […] The aggregation curves were fitted using a 4 parameter logistic function and the t1/2, elongation rate and lag time were estimated as described elsewhere.
# (§4) Scale bar = 200 nm. The raw data can be found in S2 File.
# [3] = Amylin aggregation kinetics by ThT fluorescence, up to 12 h at varying pH; assay type: physicochemical; conditions: 50 μM peptide, 10 mM buffer, 20 μM ThT, 2% DMSO, 25°C
# [4] = target: T2, Fluorescein-Labelled Murine Amylin (Mus musculus, UniProt P12968); assay: Isothermal binding assay, fluorescence anisotropy (amylin self-assembly); conditions: PBS pH 7.4, 25°C; for Anisotropy: 50 nM labelled murine amylin, mean of five measurements
# T2 sequence (P12968 38-74 limits assumed): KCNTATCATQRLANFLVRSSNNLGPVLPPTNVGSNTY
# Experimental: as §1, §2, §3
# [5] = Pharmacokinetics after subcutaneous administration in mice (serum amylin by ELISA); assay type: in vivo
# Experimental: Swiss male mice (8 weeks old; n = 4 per group) were administrated of free or monoPEGylated human amylin (both at 400 μg peptide / kg body weight) by subcutaneous route. At the indicated time interval, blood was collected with glass capillary tubes from retro-orbital access and the serum was separated. The concentration of amylin in the plasma was evaluated by ELISA (Merck Millipore, cat # EZHA-52K) by following the manufacturer protocol. The sensitivity of the ELISA assay kit for the monoPEGylated human amylin product was similar to the non-conjugated human amylin as inferred from control analytical curves. In case needed, the mice plasma samples were diluted accordingly in order to achieve the desired concentration range of the ELISA kit. Glucagon was evaluated from the same serum samples, by using an ELISA kit (Merck Millipore, Cat # EZGLU-30K) according to instructions of the manufacturer.
# Continuous lines are best fitting of single-exponential decay function to data. b) Modulation of glucagon. […] The raw data can be found in S2 File.
# [6] = Morphologic analysis of aggregation products by transmission electron microscopy (TEM); assay type: physicochemical; conditions: negative stain 2% uranyl acetate; products of the aggregation kinetics
# Source text: Samples from aggregation kinetic assay were applied to 300 mesh, Formvar-carbon-coated Cu grids (Electron Microscopy Science, USA), followed by negative stain with 2% uranyl acetate, pH 4.8, for 30–60 s.
# as §4
# [7] = (unit not given), Swiss male mice, s.c., 400 μg peptide/kg
substance,measurement,setting,value
PEGylated human amylin: human amylin monoconjugated at the N-terminal Lys1 region with 5 kDa methoxyl polyethylene glycol succinimidyl carbonate (mPEGsc5k) (KCNTATCATQRLANFLVHSSNNFGAILSSTNVGSNTY-NH2; disulfide 2-7; also: one mPEG 5 kDa (mPEGsc5k) on a Lys1 amino group),binding to coreceptor RAMP3 (in words),"[1]; fluorescence anisotropy, PBS pH 7.4, 25°C, 50 nM FITC-labelled protein",PEGylation did not abolish the assembly
same,Anisotropy,[1]; ligand 0.0492 µM,0.0481
same,Anisotropy,[1]; ligand 0.1229 µM,0.0421
same,Anisotropy,[1]; ligand 0.3072 µM,0.0449
same,Anisotropy,[1]; ligand 0.768 µM,0.0486
same,Anisotropy,[1]; ligand 1.92 µM,0.0614
same,Anisotropy,[1]; ligand 4.8 µM,0.1188
same,Anisotropy,[1]; ligand 12 µM,0.2199
same,Anisotropy,[1]; ligand 30 µM,0.1286
same,changes in ThT fluorescence up to 7 days,[2],only minor changes in ThT fluorescence
same,changes in ThT fluorescence in the 12 h time window,[3],did not observe changes in fluorescence
same,self-assembly with amylin (in words),"[4]; fluorescence anisotropy, 50 nM FITC-labelled protein",PEGylation did not abolish the assembly
same,Anisotropy,[4]; ligand 0.0492 µM,0.0707
same,Anisotropy,[4]; ligand 0.1229 µM,0.0637
same,Anisotropy,[4]; ligand 0.3072 µM,0.0575
same,Anisotropy,[4]; ligand 0.768 µM,0.0698
same,Anisotropy,[4]; ligand 1.92 µM,0.0836
same,Anisotropy,[4]; ligand 4.8 µM,0.232
same,Anisotropy,[4]; ligand 12 µM,0.2936
same,Anisotropy,[4]; ligand 30 µM,0.27
same,"Half Life (One phase decay, best-fit value)",[5]; [7],2.988
same,"Tau (One phase decay, best-fit value)",[5]; [7],4.311
same,half-life in vivo,"[5]; male, Swiss, mouse, in vivo, sc",2.98 h
same,fibrils by TEM after aggregation assay,[6],no fibrils were observed
